For orientation: Kd means the free concentration of one partner at which half of the binding sites on the other are occupied at equilibrium, for simple one-to-one binding. One may read the stoichiometry N as the number of molecules, sites or subunits per partner or assembly.

These results are taken from article PMC9398120 (Molecular Cancer Therapeutics, 2021).

For assay [1], the target named is T1, recombinant CD73 (Homo sapiens, UniProt P21589).
Assay [2] has as its target T1, recombinant CD73. The experiment in a line: AUC.

T1 sequence (P21589 27-549): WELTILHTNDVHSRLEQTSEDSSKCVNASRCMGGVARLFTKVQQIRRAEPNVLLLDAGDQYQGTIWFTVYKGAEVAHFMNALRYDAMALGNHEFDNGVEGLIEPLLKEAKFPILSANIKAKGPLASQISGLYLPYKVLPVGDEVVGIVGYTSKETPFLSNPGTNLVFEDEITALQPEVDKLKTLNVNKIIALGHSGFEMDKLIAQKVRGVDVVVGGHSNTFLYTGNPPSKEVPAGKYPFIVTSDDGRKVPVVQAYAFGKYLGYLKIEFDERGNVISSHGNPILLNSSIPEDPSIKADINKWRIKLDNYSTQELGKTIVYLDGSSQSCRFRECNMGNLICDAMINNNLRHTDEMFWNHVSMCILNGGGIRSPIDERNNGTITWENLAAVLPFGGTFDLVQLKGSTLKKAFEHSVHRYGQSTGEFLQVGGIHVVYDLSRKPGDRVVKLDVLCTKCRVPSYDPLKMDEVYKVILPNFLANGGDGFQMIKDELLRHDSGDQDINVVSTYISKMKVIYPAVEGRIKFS

B1: mAb19 (antibody, V domains shown)
VH: QVQLVQSGAEVKKPGDSVKVSCKASGYTFTTYWMHWVRQAPGQGLEWMGAIYPGLSDTTYNQKFKGKVTMTRDTSTSTVYMKLSSLRSEDTAVYYCARLLDYAMDYWGQGTLVTVSS
VL: DIQMTQSPSSLSASVGDRVTITCRASQDIRSYLNWHQQKPGKAPKLLIWYTSRLHSGVPSRFSGSGSGTDYTLTISSLQPEDFATYFCQQGETLPWTFGQGTKLEIK
As to B1, the equilibrium dissociation constant (Kd) with recombinant CD73 [1] was found to be 0.074 nM. Further, the “stoichiometry N” value in the assay with recombinant CD73 [2] was 1 mAb19 per CD73 (printed as 2:2).
